Measured values: patent publication US20220289857A1 (Kyowa Kirin, published 2022)
Where a chain is given by its changes, count along the chain named. Names and notes keep the numbering of the source. Values joined by “and” are separate entries in the source; they are usually repeats but may differ in a detail not shown here. Identical values can stand only once.

Tests used:
[1] = target: T1, rat Fn14, endogenous on NRK-52E cells (rat, UniProt Q9CR75 28-129 (mouse entry)); experiment: flow cytometry on NRK-52E cells (endogenous rat Fn14), purified antibody 1 µg/mL, detected with anti-mouse IgG PE
T1 construct: Endogenous protein of rat kidney cells; also called NRK52E-A15/Luc cells
T1 sequence (Q9CR75 other isoform, or with tags, fused parts or gaps limits assumed): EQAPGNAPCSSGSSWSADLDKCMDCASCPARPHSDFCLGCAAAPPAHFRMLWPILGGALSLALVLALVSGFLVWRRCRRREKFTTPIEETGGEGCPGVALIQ
Procedure: Primary antibodies were used at a concentration of 1 μg/mL and binding was detected using anti-mouse IgG PE.
(§1) Specifically, the binding activity of hybridoma culture supernatants or purified antibodies to Fn14-expressing cells was evaluated by flow cytometry (FCM). The cell lines evaluated by FCM were Fn14-transfected human embryonic kidney 293F cells (ThermoFisher, cat# R79007) and two cell lines endogenously expressing Fn14, human kidney-derived HK2 cells (ATCC, cat# CRL-2190) and rat kidney-derived NRK-52E cells (Japanese Collection of Research Bioresources Cell Bank (JCRB), cat# IF050480). For FCM analysis, Fn14-expressing cells were harvested using 0.25% trypsin-EDTA (Nacalai Tesque), washed with PBS, and resuspended in SM (Staining Medium: PBS containing 2% FBS, 1 mM EDTA, 0.05% sodium azide). Cells were then seeded in a 96-well plate at 1 ×10⁵ cells per well. Hybridoma supernatant or purified antibody (1 μg/mL final concentration) was added and the cells were incubated at 4° C. for 60 minutes. Cells were then washed with SM, resuspended in goat F(ab′)2 anti-mouse IgG-PE (Southern Biotech Inc.), diluted 1:500 in SM and incubated at 4° C. for 60 minutes. Cells were washed with SM and finally resuspended in 50 μL of SM. Fluorescence intensity was measured by FCM (BD Biosciences, FACS CantoII) and the data were analyzed using FlowJo software (Tomy Digital Biology Co., Ltd.).

[2] = target: T2, mouse Fn14 (full length) on transfected 293F cells (mouse, UniProt Q9CR75 28-129); experiment: flow cytometry, hybridoma supernatant on 293F cells transfected with mouse Fn14, detected with anti-mouse IgG PE
T2 sequence: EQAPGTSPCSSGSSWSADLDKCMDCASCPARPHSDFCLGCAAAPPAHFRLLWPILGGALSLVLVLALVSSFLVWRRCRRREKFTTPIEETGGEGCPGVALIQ
Procedure: FIG. 1 depicts binding of anti-Fn14 hybridoma supernatants to human and mouse Fn14 transfected cells. […] Hybridoma supernatant binding was detected using anti-mouse IgG PE.
as §1, with “Cells were washed with SM and finally resuspended in 50 μL of SM.” left out

mouse Fn14-GST = target: T3, mouse Fn14-GST (mouse); experiment: SPR (Biacore T200); mouse Fn14-GST captured by immobilized anti-GST antibody, analyte at 10 nM
T3 construct: also called mouse GST-Fn14
Procedure: (§2) In order to kinetically analyze the binding activity of anti-Fn14 mouse antibodies 41c, R35B9, and CRCBT-06-002 to recombinant human and cynomolgus macaque Fn14 proteins, the binding activity was measured by surface plasmon resonance method (SPR). Antibodies were generated as described herein. All of the following procedures were carried out using a Biacore T200 (GE Healthcare Bio-Sciences). To determine antibody affinity to human Fn14, recombinant human His-SUMO-Fn14 was immobilized on a CMS sensor chip (GE Healthcare Bio-Sciences) by amine coupling chemistry. In particular, the kinetic assay was carried out by immobilizing on the chip approximately 20-30 RU of recombinant protein, in order to achieve a low protein immobilization level. To determine antibody affinity to cynomolgus macaque Fn14, polyclonal anti-GST antibodies were immobilized on a CMS sensor chip (GE Healthcare Bio-Sciences) by amine coupling chemistry. […] The dissociation time was 1800 seconds and the binding curves were measured at 25° C. […]
(§3) A sensorgram corresponding to each concentration was obtained (see FIG. 5). […] Cross-reactivity of anti-Fn14 mouse antibodies to recombinant mouse GST-Fn14 protein was measured as described above.

[3] = target: T4, cynomolgus macaque Fn14-GST (cynomolgus macaque (Macaca fascicularis)); experiment: SPR Biacore T200; cyno Fn14-GST captured by anti-GST, Fab analyte; 1:1 fit
T4 construct: Used from culture supernatant, captured by anti-GST; also called cyno Fn14-GST; CynoFn14
T4 sequence (chain, as listed by the source): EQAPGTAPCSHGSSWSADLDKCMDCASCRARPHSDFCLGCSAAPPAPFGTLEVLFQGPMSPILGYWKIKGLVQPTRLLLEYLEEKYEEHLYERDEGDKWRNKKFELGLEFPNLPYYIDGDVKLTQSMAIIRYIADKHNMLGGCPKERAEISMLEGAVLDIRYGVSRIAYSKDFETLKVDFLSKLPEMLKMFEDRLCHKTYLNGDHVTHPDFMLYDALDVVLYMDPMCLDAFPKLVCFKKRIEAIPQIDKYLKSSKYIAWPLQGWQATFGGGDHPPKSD
Procedure: (§4) In order to kinetically analyze the binding activity of anti-Fn14 mouse antibodies 41c, R35B9, and CRCBT-06-002 to recombinant human and cynomolgus macaque Fn14 proteins, the binding activity was measured by surface plasmon resonance method (SPR). Antibodies were generated as described herein. All of the following procedures were carried out using a Biacore T200 (GE Healthcare Bio-Sciences). To determine antibody affinity to human Fn14, recombinant human His-SUMO-Fn14 was immobilized on a CMS sensor chip (GE Healthcare Bio-Sciences) by amine coupling chemistry. In particular, the kinetic assay was carried out by immobilizing on the chip approximately 20-30 RU of recombinant protein, in order to achieve a low protein immobilization level. To determine antibody affinity to cynomolgus macaque Fn14, polyclonal anti-GST antibodies were immobilized on a CMS sensor chip (GE Healthcare Bio-Sciences) by amine coupling chemistry. In particular, after immobilizing approximately 1500 RU of anti-GST capture antibody onto the chip, cynomolgus macaque GST-Fn14 in culture supernatant was allowed to run for 5 minutes at a flow rate of 30 μL/min in order to achieve a low capture level of approximately 20 RU. Thereafter, antibody Fab fragments, serially diluted from a high concentration, were allowed to run at a flow rate of 30 μL/min onto the chip for 300 seconds. The dissociation time was 1800 seconds and the binding curves were measured at 25° C. Regeneration was performed with 10 mM glycine pH 1.5 for 30 seconds. The raw data were double referenced by subtraction of the signals from a reference flow cell without immobilized ligand and a buffer blank.
(§5) A sensorgram corresponding to each concentration was obtained (see FIG. 5). Analysis was carried out using a 1:1 Langmuir fit model using the analysis software attached to the apparatus, Biacore T200 Evaluation software (Biacore), thereby calculating an association rate constant ka [M-1s-1] and a dissociation rate constant kd [s-1] for the recombinant Fn14 proteins. […] Cross-reactivity of anti-Fn14 mouse antibodies to recombinant mouse GST-Fn14 protein was measured as described above.

[4] = target: T5, His-SUMO-huFn14 (soluble human Fn14 aa 28-75 with N-terminal 6xHis-SUMO tag) (human); experiment: SPR Biacore T200; His-SUMO-huFn14 amine-coupled, Fab analyte; 1:1 fit
T5 construct: also called His-SUMO-Fn14; His-SUMO-hFn14
T5 sequence (chain, as listed by the source limits assumed): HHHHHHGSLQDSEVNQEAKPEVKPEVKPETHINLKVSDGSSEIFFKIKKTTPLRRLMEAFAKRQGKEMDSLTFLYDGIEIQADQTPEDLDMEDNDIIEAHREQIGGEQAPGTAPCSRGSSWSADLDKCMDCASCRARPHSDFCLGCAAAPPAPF
Procedure: as §4, §5

[5] = target: T4, cynomolgus macaque Fn14-GST; experiment: SPR Biacore T200; cyno Fn14-GST captured by anti-GST, Fab analyte; average of two runs
Procedure: as §2, §3

[6] = target: T5, His-SUMO-huFn14 (soluble human Fn14 aa …); experiment: SPR Biacore T200; His-SUMO-huFn14 amine-coupled, Fab analyte; average of two runs
Procedure: as §2, §3

[7] = target: T6, human Fn14 Subdomain 1 peptide (AA30-50), biotinylated (human, added C-terminal Lys carries Ahx-biotin; C-terminal amide); experiment: biolayer interferometry (ForteBio Octet); biotinylated peptide on streptavidin biosensor, antibody in solution, response at 120 s of association
T6 peptide: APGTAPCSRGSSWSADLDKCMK
Procedure: (§6) A ForteBio Octet Qke instrument (ForteBio) was used to measure the ability of purified antibodies to bind Fn14 peptides. The assays were performed at 30° C. in 96-well half area plates (Grenier, cat# 675076), with agitation set to 1000 rpm, in kinetic buffer (provided in the assay kit) to minimize nonspecific interactions. Biosensor tips were equilibrated in kinetic buffer for 600 s prior to use. Soluble biotinylated peptides (20 μg/ml, Subdomain 1 (AA30-50): […]-[K-Ahx-biotin]-amide (SEQ ID NO: 182) and Subdomain 2 (AA51-70): […]-[K-Ahx-biotin]-amide (SEQ ID NO: 183) synthesized by 21′ Century Biochemicals) in kinetic buffer were immobilized on streptavidin-coated biosensors (ForteBio, cat# 18-5020) for 300 seconds. […] Purified antibodies (20 μg/m1) were allowed to bind the immobilized peptides. Association was measured for 300 seconds, using the high sensitivity kinetics setting. To characterize the binding properties of the antibody candidates, the response (nm) at t =120 seconds from the start of the association step was recorded. All values were compared to a control sample (isotype antibody).

[8] = target: T7, human Fn14 Subdomain 2 peptide (AA51-70), biotinylated (human, added C-terminal Lys carries Ahx-biotin; C-terminal amide); experiment: biolayer interferometry (ForteBio Octet); biotinylated peptide on streptavidin biosensor, response at 120 s of association
T7 peptide: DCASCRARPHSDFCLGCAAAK
Procedure: as §6

[9] = target: T8, human Fn14 (full length) on cells (human, UniProt Q9NP84 28-129); experiment: cell-based or functional assay
T8 sequence: T2 sequence with S7A, S11R, P29R, H47P, V62T, L63F, A66G, V68L, S70G, G97A

B1: KO41c mouse monoclonal antibody (hybridoma-derived) (antibody, V domains shown)
VH: EVQLQQSGPELVKPGASVKMSCKASGYTFTDYNMHWVKQSHGKSLEWIGYINPNNGGTNYNQKFKGKATLTVNKSSRSAYMEFRSLTSEDSAVYYCASSGWFTYWGQGTLVTVSA
VL: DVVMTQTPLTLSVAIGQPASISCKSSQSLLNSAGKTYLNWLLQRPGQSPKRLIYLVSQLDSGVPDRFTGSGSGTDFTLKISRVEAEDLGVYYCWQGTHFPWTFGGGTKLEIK
notes: Hybridoma supernatant or purified antibody from an Fn14 knockout mouse; native mouse IgG, kappa
B1: binds [1]; binds [2].

B2: R35B9 Fab (enzymatic digest of the mouse IgG1 antibody) (Fab, V domains shown, not shown: a dimerising Fc or GST)
VH: B1 VH with T28I, T30Q, Y50S, N54R, G57W
VL: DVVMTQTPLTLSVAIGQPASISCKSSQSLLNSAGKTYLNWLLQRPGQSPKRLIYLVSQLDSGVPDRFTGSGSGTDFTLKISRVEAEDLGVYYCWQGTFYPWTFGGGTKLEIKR
notes: Made with the mouse IgG1 Fab and F(ab')2 preparation kit; also called R35B9 Fab LM042817
For B2, the binding result (mouse Fn14-GST) was “binds”, the Kd [3] was 0.235 nM and 0.222 nM and the koff [3] was 0.000342 s⁻¹ and 0.00038 s⁻¹. The kon [3] was 1.46e+06 M⁻¹ s⁻¹ and 1.71e+06 M⁻¹ s⁻¹, the Kd [4] was 0.205 nM and 0.21 nM and the koff [4] was 0.00063 s⁻¹ and 0.000427 s⁻¹. The kon [4] was 3.07e+06 M⁻¹ s⁻¹ and 2.03e+06 M⁻¹ s⁻¹, the Kd [5] was 0.229 nM and the Kd [6] was 0.208 nM.

B3: R35B9 mouse IgG1(D265A), kappa antibody (A402/A403) (antibody)
heavy: EVQLQQSGPELVKPGASVKMSCKASGYIFQDYNMHWVKQSHGKSLEWIGSINPRNGWTNYNQKFKGKATLTVNKSSRSAYMEFRSLTSEDSAVYYCASSGWFTYWGQGTLVTVSAAKTTPPSVYPLAPGSAAQTNSMVTLGCLVKGYFPEPVTVTWNSGSLSSGVHTFPAVLESDLYTLSSSVTVPSSPRPSETVTCNVAHPASSTKVDKKIVPRDCGCKPCICTVPEVSSVFIFPPKPKDVLTITLTPKVTCVVVAISKDDPEVQFSWFVDDVEVHTAQTQPREEQFNSTFRSVSELPIMHQDWLNGKEFKCRVNSAAFPAPIEKTISKTKGRPKAPQVYTIPPPKEQMAKDKVSLTCMITDFFPEDITVEWQWNGQPAENYKNTQPIMNTNGSYFVYSKLNVQKSNWEAGNTFTCSVLHEGLHNHHTEKSLSHSPGK
light: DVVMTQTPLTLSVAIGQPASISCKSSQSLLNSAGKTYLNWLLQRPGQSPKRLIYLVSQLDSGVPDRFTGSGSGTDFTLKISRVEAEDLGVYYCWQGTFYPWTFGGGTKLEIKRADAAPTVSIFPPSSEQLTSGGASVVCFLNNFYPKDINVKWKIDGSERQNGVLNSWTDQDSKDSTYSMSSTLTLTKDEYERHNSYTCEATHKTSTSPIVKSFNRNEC
B3 was tested, and the binding result [7] was “binds”, the binding result [8] was “no binding (tested: 20 µg/mL)” and the “ICAM-1 MFI on HRMC, 250 ng/mL rhTWEAK, mAb 0.1 µg/mL” value [9] was 5830 MFI.

B4: 41c Fab (enzymatic digest of the mouse IgG1 antibody) (Fab, V domains shown, not shown: a dimerising Fc or GST)
VH: B1 VH
VL: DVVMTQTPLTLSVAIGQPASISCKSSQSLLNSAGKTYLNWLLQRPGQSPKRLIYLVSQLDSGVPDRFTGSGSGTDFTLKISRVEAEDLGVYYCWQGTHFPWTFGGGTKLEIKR
notes: Made with the mouse IgG1 Fab and F(ab')2 preparation kit; also called 41C Fab LM101416
For B4, the binding result (mouse Fn14-GST) was “binds”, the Kd [3] was 3.48 nM and 3.28 nM and the koff [3] was 0.00153 s⁻¹ and 0.00223 s⁻¹. The kon [3] was 441000 M⁻¹ s⁻¹ and 678000 M⁻¹ s⁻¹, the Kd [4] was 2.15 nM and 1.81 nM and the koff [4] was 0.00242 s⁻¹ and 0.00266 s⁻¹. The kon [4] was 1.13e+06 M⁻¹ s⁻¹ and 1.47e+06 M⁻¹ s⁻¹, the Kd [5] was 3.38 nM and the Kd [6] was 1.98 nM.
